This is an account of results in US20070116673.

In data set [1] the target is T1, synthetic integrin α1 cytoplasmic tail peptide (RPLKKKMEKRPLKKKMEK).
T1 chain: RPLKKKMEKRPLKKKMEK

The target in data set [2] is T2, α2 peptide KLGFFKRKYEKMTKNPDEIDETTELSS (synthetic integrin α2 cytoplasmic tail peptide).
T2 chain: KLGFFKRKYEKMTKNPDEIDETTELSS

B1: SHP-2 (protein tyrosine phosphatase immunoprecipitated from HeLa lysates) (protein)
chain: TSRRWFHPNITGVEAENLLLTRGVDGSFLARPSKSNPGDFTLSVRRNGAVTHIKIQNTGDYYDLYGGEKFATLAELVQYYMEHHGQLKEKNGDVIELKYPLNCADPTSERWFHGHLSGKEAEKLLTEKGKHGSFLVRESQSHPGDFVLSVRTGDDKGESNDGKSKVTHVMIRCQELKYDVGGGERFDSLTDLVEHYKKNPMVETLGTVLQLKQPLNTTRINAAEIESRVRELSKLAETTDKVKQGFWEEFETLQQQECKLLYSRKEGQRQENKNKNRYKNILPFDHTRVVLHDGDPNEPVSDYINANIIMPEFETKCNNSKPKKSYIATQGCLQNTVNDFWRMVFQENSRVIVMTTKEVERGKSKCVKYWPDEYALKEYGVMRVRNVKESAAHDYTLRELKLSKVGQGNTERTVWQYHFRTWPDHGVPSDPGGVLDFLEEVHHKQESIMDAGPVVVHCSAGIGRTGTFIVIDILIDIIREKGVDCDIDVPKTIQMVRSQRSGMVQTEAQYRFIYMAVQHYIETLQRRIEEEQKSKRKGHEYTNIKYSLADQTSGDQSPLPPCTPTPPCAEMREDSARVYENVGLMQQQKSFR
Regarding B1, the “phosphatase activity of immunoprecipitated SHP-2 (diFMUP substrate)” value is “another protein tyrosine phosphatase, SHP-2, was not activated by either peptide” in data set [1] and “another protein tyrosine phosphatase, SHP-2, was not activated by either peptide” in data set [2].

B2: endogenous TCPTP (T cell protein tyrosine phosphatase) of HeLa cells (protein)
chain: MPTTIEREFEELDTQRRWQPLYLEIRNESHDYPHRVAKFPENRNRNRYRDVSPYDHSRVKLQNAENDYINASLVDIEEAQRSYILTQGPLPNTCCHFWLMVWQQKTKAVVMLNRIVEKESVKCAQYWPTDDQEMLFKETGFSVKLLSEDVKSYYTVHLLQLENINSGETRTISHFHYTTWPDFGVPESPASFLNFLFKVRESGSLNPDHGPAVIHCSAGIGRSGTFSLVDTCLVLMEKGDDINIKQVLLNMRKYRMGLIQTPDQLRFSYMAIIEGAKCIKGDSSIQKRWKELSKEDLSPAFDHSPNKIMTEKYNGNRIGLEEEKLTGDRCTGLSSKMQDTMEENSESALRKRIREDRKATTAQKVQQMKQRLNENERKRKRWLYWQPILTKMGFMSVILVGAFVGWTLFFQQNAL
On to B2, for which the “catalytic activity of immunoprecipitated TCPTP (diFMUP substrate)” value is on record as “increased 2.95±0.48 fold” in data set [1] and “the corresponding α2 tail peptide had no effect” in data set [2].
